Measurements: US20260242735A1 (UNIVERSIT T BASEL, published 2026)

Legend:
human CD33 Y50Q = human CD33 Y50Q (human, UniProt P20138 18-364); assay: flow cytometry, transfected cells
human CD33 K52D = human CD33 K52D (human, UniProt P20138 18-364); assay: flow cytometry, transfected cells
human CD33 P48H = human CD33 P48H (human, UniProt P20138 18-364); assay: flow cytometry, transfected cells
human CD33 Y49D = human CD33 Y49D (human, UniProt P20138 18-364); assay: flow cytometry, transfected cells
human CD33 P48F = human CD33 P48F (human, UniProt P20138 18-364); assay: flow cytometry, transfected cells
human CD33 P48F, sequence (P20138 18-364 P48F limits assumed): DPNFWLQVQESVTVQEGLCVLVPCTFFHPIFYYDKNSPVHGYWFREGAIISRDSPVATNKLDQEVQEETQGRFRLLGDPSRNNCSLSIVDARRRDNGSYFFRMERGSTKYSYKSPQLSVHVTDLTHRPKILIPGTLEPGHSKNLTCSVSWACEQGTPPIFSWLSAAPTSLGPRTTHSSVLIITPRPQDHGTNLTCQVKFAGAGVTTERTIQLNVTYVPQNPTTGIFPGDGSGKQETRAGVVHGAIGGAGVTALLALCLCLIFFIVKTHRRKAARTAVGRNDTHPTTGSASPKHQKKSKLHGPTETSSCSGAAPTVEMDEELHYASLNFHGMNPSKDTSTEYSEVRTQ

human CD33 Y50V = human CD33 Y50V (human, UniProt P20138 18-364); assay: flow cytometry, transfected cells
human CD33 P48Q = human CD33 P48Q (human, UniProt P20138 18-364); assay: flow cytometry, transfected cells
human CD33 P48Q, sequence (P20138 18-364 P48Q limits assumed): as the sequence (P20138 18-364 P48F limits assumed) above, with F31Q counted along it

human CD33 P48D = human CD33 P48D (human, UniProt P20138 18-364); assay: flow cytometry, transfected cells
human CD33 P48D, sequence (P20138 18-364 P48D limits assumed): as the sequence (P20138 18-364 P48F limits assumed) above, with F31D counted along it

human CD33 P48W = human CD33 P48W (human, UniProt P20138 18-364); assay: flow cytometry, transfected cells
human CD33 P48W, sequence (P20138 18-364 P48W limits assumed): as the sequence (P20138 18-364 P48F limits assumed) above, with F31W counted along it

human CD33 Y50S = human CD33 Y50S (human, UniProt P20138 18-364); assay: flow cytometry, transfected cells
human CD33 W22L = human CD33 W22L (human, UniProt P20138 18-364); assay: flow cytometry, HEK293-T, IgG;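 further: CD33 point mutants transiently expressed, antibody binding measured by fluorescence in duplicate, background subtracted and scaled to binding on wild-type CD33 as 100%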
Experimental: (§1) An alanine scan on human CD33 was performed to the determine the residues on CD33 that are involved in binding to the antibodies investigated. […] Briefly, a mutation library of CD33 was created by high-throughput, site-directed mutagenesis. Each residue was individually mutated to alanine, with alanine codons mutated to serine. The mutant library was arrayed in 384-well microplates and transiently transfected into HEK293-T. Following transfection, cells were incubated with the indicated antibodies (IgG or Fab) at concentrations pre-determined using an independent immunofluorescence titration curve on wild type CD33. […] Binding of each antibody to each mutant clone was determined in duplicates. For each point, background fluorescence was subtracted from the raw data, which were then normalized to antibody reactivity with wild type CD33.
(§2) Antibodies were screened for binding to the human CD33 variants in IgG format. […] For each mutation, background fluorescence was subtracted from the raw data, which were then normalized to antibody reactivity with wild-type CD33.

human CD33 W22E = human CD33 W22E (human, UniProt P20138 18-364); assay: flow cytometry, HEK293-T, IgG;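 further: CD33 point mutants transiently expressed, antibody binding measured by fluorescence in duplicate, background subtracted and scaled to binding on wild-type CD33 as 100%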
Experimental: as §1, §2

human CD33 P19W = human CD33 P19W (human, UniProt P20138 18-364); assay: flow cytometry, HEK293-T, IgG;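 further: CD33 point mutants transiently expressed, antibody binding measured by fluorescence in duplicate, background subtracted and scaled to binding on wild-type CD33 as 100%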
Experimental: as §1, §2

human CD33 Q24E = human CD33 Q24E (human, UniProt P20138 18-364); assay: flow cytometry, HEK293-T, IgG;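 further: CD33 point mutants transiently expressed, antibody binding measured by fluorescence in duplicate, background subtracted and scaled to binding on wild-type CD33 as 100%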
Experimental: as §1, §2

human CD33 W22P = human CD33 W22P (human, UniProt P20138 18-364); assay: flow cytometry, HEK293-T, IgG
Experimental: as §1, §2

human CD33 D18R = human CD33 D18R (human, UniProt P20138 19-364); assay: flow cytometry, HEK293-T, IgG
Experimental: as §1, §2

human CD33 W22R = human CD33 W22R (human, UniProt P20138 18-364); assay: flow cytometry, HEK293-T, IgG
human CD33 W22R, sequence (P20138 18-364 W22R limits assumed): as the sequence (P20138 18-364 P48F limits assumed) above, with W5R, F31P counted along it
Experimental: as §1, §2

human CD33 F21S = human CD33 F21S (human, UniProt P20138 18-364); assay: flow cytometry, HEK293-T, IgG
human CD33 F21S, sequence (P20138 18-364 F21S limits assumed): as the sequence (P20138 18-364 P48F limits assumed) above, with F4S, F31P counted along it
Experimental: as §1, §2

human CD33 P19L = human CD33 P19L (human, UniProt P20138 18-364); assay: flow cytometry, HEK293-T, IgG
human CD33 P19L, sequence (P20138 18-364 P19L limits assumed): as the sequence (P20138 18-364 P48F limits assumed) above, with P2L, F31P counted along it
Experimental: as §1, §2

human CD33 Q24H = human CD33 Q24H (human, UniProt P20138 18-364); assay: flow cytometry, HEK293-T, IgG
human CD33 Q24H, sequence (P20138 18-364 Q24H limits assumed): as the sequence (P20138 18-364 P48F limits assumed) above, with Q7H, F31P counted along it
Experimental: as §1, §2

human CD33 W22Y = human CD33 W22Y (human, UniProt P20138 18-364); assay: flow cytometry, HEK293-T, IgG
human CD33 W22Y, sequence (P20138 18-364 W22Y limits assumed): as the sequence (P20138 18-364 P48F limits assumed) above, with W5Y, F31P counted along it
Experimental: as §1, §2

human CD33 P19K [1] = target: human CD33 P19K (human, UniProt P20138 18-364); assay: flow cytometry, HEK293-T, IgG
Target sequence in this assay (P20138 18-364 P19K limits assumed): as the sequence (P20138 18-364 P48F limits assumed) above, with P2K, F31P counted along it
Experimental: as §1, §2

human CD33 N20K [2] = target: human CD33 N20K (human, UniProt P20138 18-364); assay: flow cytometry, HEK293-T, IgG
Target sequence in this assay (P20138 18-364 N20K limits assumed): as the sequence (P20138 18-364 P48F limits assumed) above, with N3K, F31P counted along it
Experimental: as §1, §2

human CD33 Q24S = human CD33 Q24S (human, UniProt P20138 18-364); assay: flow cytometry, HEK293-T, IgG
Experimental: as §1, §2

human CD33 W22S = human CD33 W22S (human, UniProt P20138 18-364); assay: flow cytometry, HEK293-T, IgG
Experimental: as §1, §2

human CD33 I47P = human CD33 I47P (human, UniProt P20138 18-364); assay: flow cytometry, transfected cells
human CD33 N20K [3] = target: human CD33 N20K (human, UniProt P20138 18-364); assay: flow cytometry, transfected cells
Target sequence in this assay (P20138 18-364 N20K limits assumed): as the sequence (P20138 18-364 P48F limits assumed) above, with N3K, F31P counted along it

human CD33 P46F = human CD33 P46F (human, UniProt P20138 18-364); assay: flow cytometry, transfected cells
human CD33 N20D = human CD33 N20D (human, UniProt P20138 18-364); assay: flow cytometry, transfected cells
human CD33 N20Y = human CD33 N20Y (human, UniProt P20138 18-364); assay: flow cytometry, transfected cells
human CD33 N20E = human CD33 N20E (human, UniProt P20138 18-364); assay: flow cytometry, transfected cells
human CD33 P19K [4] = target: human CD33 P19K (human, UniProt P20138 18-364); assay: flow cytometry, transfected cells
Target sequence in this assay (P20138 18-364 P19K limits assumed): as the sequence (P20138 18-364 P48F limits assumed) above, with P2K, F31P counted along it

human CD33 F21I = human CD33 F21I (human, UniProt P20138 18-364); assay: flow cytometry, transfected cells
human CD33 P19D = human CD33 P19D (human, UniProt P20138 18-364); assay: flow cytometry, transfected cells
human CD33 N20G = human CD33 N20G (human, UniProt P20138 18-364); assay: flow cytometry, transfected cells
human CD33 F21V = human CD33 F21V (human, UniProt P20138 18-364); assay: flow cytometry, transfected cells
human CD33 F21L = human CD33 F21L (human, UniProt P20138 18-364); assay: flow cytometry, transfected cells
human CD33 N20T = human CD33 N20T (human, UniProt P20138 18-364); assay: flow cytometry, transfected cells
human CD33 W22N = human CD33 W22N (human, UniProt P20138 18-364); assay: flow cytometry, transfected cells

human CD33 P48H, sequence (P20138 18-364 P48H limits assumed): as the sequence (P20138 18-364 P48F limits assumed) above, with F31H counted along it
human CD33 Y50Q, sequence (P20138 18-364 Y50Q limits assumed): as the sequence (P20138 18-364 P48F limits assumed) above, with F31P, Y33Q counted along it

binding result (human CD33 Y50Q) | binding result (human CD33 K52D) | binding result (human CD33 P48H) | binding result (human CD33 Y49D) | binding result (human CD33 P48F) | binding result (human CD33 Y50V) | binding result (human CD33 P48Q) | binding result (human CD33 P48D) | binding result (human CD33 P48W) | binding result (human CD33 Y50S) | Mean % WT Binding (human CD33 W22L) | Mean % WT Binding (human CD33 W22E) | Mean % WT Binding (human CD33 P19W) | Mean % WT Binding (human CD33 Q24E) | Mean % WT Binding (human CD33 W22P) | Mean % WT Binding (human CD33 D18R) | Mean % WT Binding (human CD33 W22R) | Mean % WT Binding (human CD33 F21S) | Mean % WT Binding (human CD33 P19L) | Mean % WT Binding (human CD33 Q24H) | Binder | also measured
no binding (tested: below 20%) | no binding (tested: below 20%) | no binding (tested: below 20%) | no binding (tested: below 20%) | no binding (tested: below 20%) | no binding (tested: below 20%) | no binding (tested: below 20%) | no binding (tested: below 20%) | no binding (tested: below 20%) | no binding (tested: below 20%) |  |  |  |  |  |  |  |  |  |  | Refmab #4 (antibody, human IgG1, V domains shown) VH: QVQLVQSGAEVKKPGESVKVSCKASGYTFTNYGMNWVKQAPGQGLEWMGWINTYTGEPTYADKFQGRVTMTTDTSTSTAYMEIRNLGGDDTAVYYCARWSWSDGYYVYFDYWGQGTSVTVSS VL: DIVMTQSPDSLTVSLGERTTINCKSSQSVLDSSTNKNSLAWYQQKPGQPPKLLLSWASTRESGIPDRFSGSGSGTDFTLTIDSPQPEDSATYYCQQSAHFPITFGQGTRLEIK | 
 |  |  |  |  |  |  |  |  |  | 96 % WT binding | 111 % WT binding | 85.9 % WT binding | 95.6 % WT binding | 110 % WT binding | 97.4 % WT binding | 104 % WT binding | 112 % WT binding | 100 % WT binding | 104 % WT binding | Refmab #5 (antibody, human IgG1, V domains shown, tested in IgG format) VH: QVQLVQSGAEVKKPGASVKVSCKASGYTFTNYDINWVRQAPGQGLEWIGWIYPGDGSTKYNEKFKAKATLTADTSTSTAYMELRSLRSDDTAVYYCASGYEDAMDYWGQGTTVTVSS VL: DIQMTQSPSSLSASVGDRVTINCKASQDINSYLSWFQQKPGKAPKTLIYRANRLVDGVPSRFSGSGSGQDYTLTISSLQPEDFATYYCLQYDEFPLTFGGGTKVEIK | Mean % WT Binding (human CD33 W22Y): 107 % WT binding; Mean % WT Binding (human CD33 P19K [1]): 86.2 % WT binding; Mean % WT Binding (human CD33 N20K [2]): 105 % WT binding; Mean % WT Binding (human CD33 Q24S): 110 % WT binding; Mean % WT Binding (human CD33 W22S): 89.7 % WT binding
no binding (tested: below 20%) | no binding (tested: below 20%) | no binding (tested: below 20%) | no binding (tested: below 20%) | no binding (tested: below 20%) | no binding (tested: below 20%) | no binding (tested: below 20%) | no binding (tested: below 20%) | no binding (tested: below 20%) | no binding (tested: below 20%) |  |  |  |  |  |  |  |  |  |  | Refmab #5 (antibody, human IgG1, V domains shown) VH: QVQLVQSGAEVKKPGASVKVSCKASGYTFTNYDINWVRQAPGQGLEWIGWIYPGDGSTKYNEKFKAKATLTADTSTSTAYMELRSLRSDDTAVYYCASGYEDAMDYWGQGTTVTVSS VL: DIQMTQSPSSLSASVGDRVTINCKASQDINSYLSWFQQKPGKAPKTLIYRANRLVDGVPSRFSGSGSGQDYTLTISSLQPEDFATYYCLQYDEFPLTFGGGTKVEIK | binding result (human CD33 I47P): no binding (tested: below 20%)
 |  |  |  |  |  |  |  |  |  |  |  |  |  |  |  |  |  |  |  | Refmab #1 (antibody, human IgG1, V domains shown, also called hP67.6; Absolute Antibody Cat. No. Ab00283-10.0) VH: EVQLVQSGAEVKKPGSSVKVSCKASGYTITDSNIHWVRQAPGQSLEWIGYIYPYNGGTDYNQKFKNRATLTVDNPTNTAYMELSSLRSEDTAFYYCVNGNPWLAYWGQGTLVTVSS VL: DIQLTQSPSTLSASVGDRVTITCRASESLDNYGIRFLTWFQQKPGKAPKLLMYAASNQGSGVPSRFSGSGSGTEFTLTISSLQPDDFATYYCQQTKEVPWSFGQGTKVEVK | binding result (human CD33 N20K [3]): no binding (tested: below 20%); binding result (human CD33 P46F): no binding (tested: below 20%); binding result (human CD33 N20D): no binding (tested: below 20%); binding result (human CD33 N20Y): no binding (tested: below 20%); binding result (human CD33 N20E): no binding (tested: below 20%); binding result (human CD33 P19K [4]): no binding (tested: below 20%); binding result (human CD33 F21I): no binding (tested: below 20%); binding result (human CD33 P19D): no binding (tested: below 20%); binding result (human CD33 N20G): no binding (tested: below 20%); binding result (human CD33 F21V): no binding (tested: below 20%); binding result (human CD33 F21L): no binding (tested: below 20%); binding result (human CD33 N20T): no binding (tested: below 20%)
 |  |  |  |  |  |  |  |  |  | 1.1 % WT binding | 1.7 % WT binding | 75.5 % WT binding | 89.7 % WT binding | 1.8 % WT binding | 68.3 % WT binding | 1.3 % WT binding | 115 % WT binding | 103 % WT binding | 100 % WT binding | Refmab #6 (antibody, human IgG1, V domains shown, tested in IgG format) VH: QVQLQQPGAEVVKPGASVKMSCKASGYTFTSYYIHWIKQTPGQGLEWVGVIYPGNDDISYNQKFQGKATLTADKSSTTAYMQLSSLTSEDSAVYYCAREVRLRYFDVWGQGTTVTVSS VL: EIVLTQSPGSLAVSPGERVTMSCKSSQSVFFSSSQKNYLAWYQQIPGQSPRLLIYWASTRESGVPDRFTGSGSGTDFTLTISSVQPEDLAIYYCHQYLSSRTFGQGTKLEIK | Mean % WT Binding (human CD33 W22Y): 4.1 % WT binding; Mean % WT Binding (human CD33 P19K [1]): 85.4 % WT binding; Mean % WT Binding (human CD33 N20K [2]): 91.8 % WT binding; Mean % WT Binding (human CD33 Q24S): 80.7 % WT binding; Mean % WT Binding (human CD33 W22S): 6.7 % WT binding
 |  |  |  |  |  |  |  |  |  |  |  |  |  |  |  |  |  |  |  | Refmab #6 (antibody, human IgG1, V domains shown) VH: QVQLQQPGAEVVKPGASVKMSCKASGYTFTSYYIHWIKQTPGQGLEWVGVIYPGNDDISYNQKFQGKATLTADKSSTTAYMQLSSLTSEDSAVYYCAREVRLRYFDVWGQGTTVTVSS VL: EIVLTQSPGSLAVSPGERVTMSCKSSQSVFFSSSQKNYLAWYQQIPGQSPRLLIYWASTRESGVPDRFTGSGSGTDFTLTISSVQPEDLAIYYCHQYLSSRTFGQGTKLEIK | binding result (human CD33 W22N): no binding (tested: below 20%)
